Each block holds one binder with its values, some of them ahead of it.
Legend:
[1] = biological target: T1, biotinylated recombinant mouse IL-12Rβ2 (produced in-house) (mouse, UniProt P97378 24-637, random biotinylated); assay: ELISA, P.E. VHH on biotinylated mIL-12RB2, signal ratio to control well
T1 construct: also called mIL-12RB2; mIL12RB2
T1 sequence: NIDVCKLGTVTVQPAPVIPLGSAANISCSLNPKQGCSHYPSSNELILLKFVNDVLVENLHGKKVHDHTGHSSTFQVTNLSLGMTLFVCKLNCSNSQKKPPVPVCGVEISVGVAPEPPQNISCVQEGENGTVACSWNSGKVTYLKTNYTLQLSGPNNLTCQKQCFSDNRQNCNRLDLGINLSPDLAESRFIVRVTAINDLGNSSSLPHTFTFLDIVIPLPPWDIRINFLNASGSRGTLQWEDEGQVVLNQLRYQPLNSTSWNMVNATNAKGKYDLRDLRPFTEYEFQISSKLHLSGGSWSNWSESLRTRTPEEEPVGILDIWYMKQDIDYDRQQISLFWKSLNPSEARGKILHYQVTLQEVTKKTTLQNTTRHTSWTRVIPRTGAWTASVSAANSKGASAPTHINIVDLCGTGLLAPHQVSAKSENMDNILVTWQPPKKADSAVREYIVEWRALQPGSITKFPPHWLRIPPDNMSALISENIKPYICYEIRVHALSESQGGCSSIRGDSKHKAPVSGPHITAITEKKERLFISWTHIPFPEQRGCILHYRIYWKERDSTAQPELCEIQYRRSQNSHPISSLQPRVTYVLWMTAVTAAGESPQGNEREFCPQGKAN

[2] = biological target: T2, biotinylated recombinant human IL-12Rβ2 (produced in-house) (human, UniProt Q99665 24-622, random biotinylated); assay: ELISA, P.E. VHH on biotinylated hIL-12RB2, signal ratio to control well
T2 construct: also called hIL-12RB2; hIL12RB2
T2 sequence: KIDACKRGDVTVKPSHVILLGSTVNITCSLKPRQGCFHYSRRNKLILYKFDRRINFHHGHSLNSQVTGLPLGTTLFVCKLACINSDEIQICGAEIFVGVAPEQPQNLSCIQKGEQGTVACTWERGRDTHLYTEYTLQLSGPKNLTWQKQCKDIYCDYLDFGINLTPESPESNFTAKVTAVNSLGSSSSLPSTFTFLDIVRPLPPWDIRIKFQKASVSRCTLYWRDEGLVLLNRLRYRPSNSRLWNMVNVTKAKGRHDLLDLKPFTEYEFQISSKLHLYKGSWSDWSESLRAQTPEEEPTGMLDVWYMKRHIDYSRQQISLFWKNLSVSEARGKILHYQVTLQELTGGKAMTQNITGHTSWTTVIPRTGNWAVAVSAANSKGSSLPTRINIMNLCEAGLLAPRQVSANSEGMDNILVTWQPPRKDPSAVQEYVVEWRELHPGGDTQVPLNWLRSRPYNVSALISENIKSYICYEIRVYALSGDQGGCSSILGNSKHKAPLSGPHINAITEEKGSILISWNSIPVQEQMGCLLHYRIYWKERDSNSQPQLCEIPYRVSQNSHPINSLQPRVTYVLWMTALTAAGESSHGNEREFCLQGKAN

[3] = biological target: T3, mouse IL-12Rβ2 expressed on cells (mouse, UniProt P97378 24-874); assay: flow cytometry, P.E. VHH on HEK293T cells transiently expressing mIL-12RB2
T3 construct: HEK293T cells, stably transduced (cDNA NM_008354); also called mIL-12RB2
T3 sequence: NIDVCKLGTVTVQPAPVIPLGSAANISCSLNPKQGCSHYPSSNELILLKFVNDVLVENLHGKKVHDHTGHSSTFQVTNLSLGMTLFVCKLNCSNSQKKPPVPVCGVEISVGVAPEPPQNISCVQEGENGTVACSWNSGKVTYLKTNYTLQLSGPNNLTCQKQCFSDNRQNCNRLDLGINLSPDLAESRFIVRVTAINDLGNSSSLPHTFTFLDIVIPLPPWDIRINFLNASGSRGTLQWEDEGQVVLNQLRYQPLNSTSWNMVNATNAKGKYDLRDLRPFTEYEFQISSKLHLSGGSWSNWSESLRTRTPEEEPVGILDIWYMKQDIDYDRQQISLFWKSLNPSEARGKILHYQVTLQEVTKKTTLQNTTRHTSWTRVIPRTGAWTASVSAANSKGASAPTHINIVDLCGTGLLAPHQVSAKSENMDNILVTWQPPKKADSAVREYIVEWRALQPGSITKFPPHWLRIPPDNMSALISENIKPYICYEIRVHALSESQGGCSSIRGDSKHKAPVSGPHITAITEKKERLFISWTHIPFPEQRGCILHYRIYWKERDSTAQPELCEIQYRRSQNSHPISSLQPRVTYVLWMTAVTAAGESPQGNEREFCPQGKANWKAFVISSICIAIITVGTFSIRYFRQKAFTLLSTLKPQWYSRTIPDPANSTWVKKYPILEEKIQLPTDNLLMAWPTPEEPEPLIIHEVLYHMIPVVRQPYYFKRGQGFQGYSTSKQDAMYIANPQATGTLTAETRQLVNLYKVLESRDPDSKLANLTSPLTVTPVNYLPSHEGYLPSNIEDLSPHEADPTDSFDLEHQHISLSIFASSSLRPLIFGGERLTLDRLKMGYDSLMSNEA

[4] = biological target: T3, mouse IL-12Rβ2 expressed on cells; assay: flow cytometry, P.E. VHH on HEK293T cells stably expressing mIL-12RB2
[5] = biological target: T2, biotinylated recombinant human IL-12Rβ2 …; assay: BLI (Octet), P.E. VHH on immobilised biotinylated hIL-12RB2, 1:1 model
[6] = biological target: T1, biotinylated recombinant mouse IL-12Rβ2 …; assay: BLI (Octet), P.E. VHH on immobilised biotinylated mIL-12RB2, 1:1 model
[7] = biological target: T2, biotinylated recombinant human IL-12Rβ2 …; assay: BLI (Octet), P.E. VHH on immobilised biotinylated hIL-12RB2
[8] = biological target: T1, biotinylated recombinant mouse IL-12Rβ2 …; assay: BLI (Octet), P.E. VHH on immobilised biotinylated mIL-12RB2

ELISA mIL12RB2/control [1]: 38.8
ELISA hIL12RB2/control [2]: 3.04
% cells bound [3]: 7.53%
dMFI [3]: 194
% cells bound [4]: 56.9%
dMFI [4]: 316
koff [5]: 0.00519 s⁻¹
koff [6]: 0.00462 s⁻¹
Response [7]: 1.4
Response [8]: 1.03
B1: anti-IL-12Rβ2 VHH clone 3CAHM11 (VHH, not shown: small tags and cut ends)
VHH: QVQLQESGGGLVQAGGSLRLSCAASGRTFNNYAMAWFRQAPGKEREFIAAITRSDTTLYIDSVKGRFTISRDNAKNTVALQMNSLKPEDTAVYYCAAGMPYSYSDYPRDSKYDYWGRGTQVTVSS
notes: tested as periplasmic extract

ELISA mIL12RB2/control [1]: 25.1
ELISA hIL12RB2/control [2]: 3.11
% cells bound [3]: 18.6%
dMFI [3]: 312
% cells bound [4]: 26.2%
dMFI [4]: 136
koff [5]: 0.00532 s⁻¹
koff [6]: 0.00483 s⁻¹
Response [7]: 1.19
Response [8]: 0.957
B2: anti-IL-12Rβ2 VHH clone 3CRHM14 (VHH, not shown: small tags and cut ends)
VHH: QVQLQESGGGLVQAGGSLRLSCAASGRTFSNYAMAWFRQAPGTEREFVAGLSGSGGDTEFYDDSVKGRFAISRDSAKNTVWLQMNSLKPEDTAVYYCAAATHVVVHYGLVRRRGTYDYWGQGTQVTVSS
notes: tested as periplasmic extract

ELISA mIL12RB2/control [1]: 5.24
ELISA hIL12RB2/control [2]: 4.24
% cells bound [3]: 10.7%
dMFI [3]: 251
% cells bound [4]: 57.3%
dMFI [4]: 309
koff [5]: 0.00634 s⁻¹
koff [6]: 0.00671 s⁻¹
Response [7]: 1.45
Response [8]: 0.812
B3: anti-IL-12Rβ2 VHH clone 3CRHM99 (VHH, not shown: small tags and cut ends)
VHH: QVQLQESGGGLVQPGGSLRLSCAASGISSSRLHVGWFRQSPGKEREFVAAISLSGGTQAYTDSVKGRFTISGDNVKNTAYLQMNSLRPEDTAVYYCAARERFIWTWSDLTYDYWGQGTQVTVSS
notes: tested as periplasmic extract; also called 21062

ELISA mIL12RB2/control [1]: 26.3
ELISA hIL12RB2/control [2]: 6.9
% cells bound [3]: 10.4%
dMFI [3]: 257
% cells bound [4]: 27.3%
dMFI [4]: 150
koff [5]: 0.00605 s⁻¹
koff [6]: 0.00605 s⁻¹
Response [7]: 1.45
Response [8]: 0.944
B4: anti-IL-12Rβ2 VHH clone 3CRHM73 (VHH, not shown: small tags and cut ends)
VHH: QVQLQESGGGLVQAGGSLSLSCAASGSAFRLNFMGWYRQAPGKQRELVAAINSGGTEIYHDSVKGRFTISRDNADSTVWLQMNSLKPDDTAVYYCAADRGISWSKLAGGMDYWGKGTQVTVSS
notes: tested as periplasmic extract; also called 21060

From US20260209362A1 (VIB VZW, published 2026)
